Legend:
E2F4 1-180 [1] = target: T1, E2F4 1-180 (UniProt Q16254 1-180); test: SPR; random control DNA; SPR: Biacore X100, SA chip, DNA in PBS (137 mM NaCl, 2.7 mM KCl, 10 mM Na2HPO4, 2 mM KH2PO4, pH 7.4), protein 10-320 nM (Fig. S3D legend prints mM); ITC: 250 mM NaCl, 50 mM Tris-HCl pH 7.5; EMSA: Beyotime kit, 6% native gel; temperatures not stated; conditions: protein: recombinant; tags: His (pET28a); chain copies: 2; label: 5'-biotin on sense strand; blunt
E2F4 1-88 [2] = target: T2, E2F4 1-88 (UniProt Q16254 1-88); test: ITC; error exceeds value; SPR: Biacore X100, SA chip, DNA in PBS (137 mM NaCl, 2.7 mM KCl, 10 mM Na2HPO4, 2 mM KH2PO4, pH 7.4), protein 10-320 nM (Fig. S3D legend prints mM); ITC: 250 mM NaCl, 50 mM Tris-HCl pH 7.5; EMSA: Beyotime kit, 6% native gel; temperatures not stated; conditions: protein: recombinant; tags: GST removed with 3C protease (ITC methods); pET28 His construct also described; chain copies: 2; blunt
E2F4 1-88 [3] = target: T2, E2F4 1-88; test: ITC; SPR: Biacore X100, SA chip, DNA in PBS (137 mM NaCl, 2.7 mM KCl, 10 mM Na2HPO4, 2 mM KH2PO4, pH 7.4), protein 10-320 nM (Fig. S3D legend prints mM); ITC: 250 mM NaCl, 50 mM Tris-HCl pH 7.5; EMSA: Beyotime kit, 6% native gel; temperatures not stated; conditions: protein: recombinant; tags: GST removed with 3C protease (ITC methods); pET28 His construct also described; chain copies: 2; blunt
E2F4 1-180 [4] = target: T1, E2F4 1-180; test: SPR; SPR: Biacore X100, SA chip, DNA in PBS (137 mM NaCl, 2.7 mM KCl, 10 mM Na2HPO4, 2 mM KH2PO4, pH 7.4), protein 10-320 nM (Fig. S3D legend prints mM); ITC: 250 mM NaCl, 50 mM Tris-HCl pH 7.5; EMSA: Beyotime kit, 6% native gel; temperatures not stated; conditions: protein: recombinant; tags: His (pET28a); chain copies: 2; label: 5'-biotin on sense strand; blunt

T1 sequence (Q16254 1-180): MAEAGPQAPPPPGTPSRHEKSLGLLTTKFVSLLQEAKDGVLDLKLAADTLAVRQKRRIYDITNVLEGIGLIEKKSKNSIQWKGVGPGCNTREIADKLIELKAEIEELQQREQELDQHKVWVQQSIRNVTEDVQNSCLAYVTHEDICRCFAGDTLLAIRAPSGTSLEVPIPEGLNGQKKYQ
T2 sequence (Q16254 1-88): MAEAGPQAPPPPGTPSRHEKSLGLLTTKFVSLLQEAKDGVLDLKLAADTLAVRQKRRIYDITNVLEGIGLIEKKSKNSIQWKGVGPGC

B1: Control-DNA-biotin (SPR) (dsDNA)
DNA 1: ATGATGTCACCACAAGAAGT
DNA 2: ACTTCTTGTGGTGACATCAT
Question: With B1 as the binder, how does the Kd (E2F4 1-180 [1]) read?
Answer: 0.136 µM

B2: Cp2-mut (ITC) (dsDNA)
DNA 1: TTAGATTAAATTTCTTTGT
DNA 2: ACAAAGAAATTTAATCTAA
Question: How did the Kd (E2F4 1-88 [2]) turn out when B2 was run?
Answer: 19.6 ± 31.2 µM

B3: Cp2 (ITC) (dsDNA)
DNA 1: TTAGATTAAAGGTCTTTGT
DNA 2: ACAAAGACCTTTAATCTAA
Question: For B3, which Kd (E2F4 1-88 [3]) is on record?
Answer: 10.3 ± 4.37 µM

B4: Biotin-Cp2 (SPR) (dsDNA)
DNA 1: TTAGATTAAAGGTCTTTGT
DNA 2: ACAAAGACCTTTAATCTAA
Question: For B4, which Kd (E2F4 1-180 [4]) is on record?
Answer: 0.0878 µM
